Values belong to the molecule of their own block, whether it stands above or below them. Where no end group is shown, it is not given here.
Experiments:
[1] = target: GAS41 YEATS domain (amino acids 15–159) (human) (UniProt O95619); assay: ITC
[2] = target: GAS41 YEATS domain (amino acids 15–159) (human, UniProt O95619 15-159); assay: ITC
GAS41 YEATS domain (amino acids 15–159), sequence (O95619 15-159): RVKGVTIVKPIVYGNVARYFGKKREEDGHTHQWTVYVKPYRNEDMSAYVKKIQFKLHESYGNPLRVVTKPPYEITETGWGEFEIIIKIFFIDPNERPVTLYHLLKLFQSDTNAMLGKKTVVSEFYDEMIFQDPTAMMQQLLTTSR

GAS41 YEATS domain (amino acids 15–159) (human), sequence (O95619 15-159): as above

Kd [1]: 32.7 µM
Molecule: H3_(15–39)K27ac peptide (from UniProt P68431 16-40)

Kd [2]: 13 µM
B1: H3_(1–15)K14ac peptide (peptide, UniProt P68431 2-16, looked up)
peptide: ARTKQTARKSTGGK(Ac)A

— publication PMC5828395 (Genes & Development, 2018)
